# Measurements as given in US20100047893A1 (RESEARCH FOUNDATION OF STATE UNIVERSITY OF NEW YORK, published 2010).
# Molecular target: the molecule itself
# Test: nondenaturing 4-20% PAGE and western blot of 1 ug recombinant TbPRMT7-His
protein,measurement,value
"recombinant TbPRMT7-His (enzyme, also called T. brucei PRMT7; Tb927.7.5490; not shown: His tag) MPPKQHRHQKKDKNDNALQNTIGFVPPGATLASVSGYRPPDAFVNRIDRNIPVPARLRHTPVSLIEAVNDFHYAMMNDEERNNFYYEVLKKHVTPETGVLEIGAGSGLLSLMAAKLGAKWVVAVEGSEELAKLARENIRANNMEHQVKVLHMMSTELKSKHLPEPPDVLLSEIFGTMMLGESALDYVVDVRNRLLKPTTKIIPQFGTQYAVPIECDALHRISSVSGWRDLDLKHMMTLQDTVSIVFAKHYGIRMNSVNFRRLSDPIELFRVDFSSSNRNDIPRRKHFDVVAKESGTAHAMLFYWKVTDDEFVMSTDPEDTVNNFPRDMQWGQALQLLDASNGPLPTPVVFTEGKNYNFECNFSGDRVILHMQLCPESGNGEMTECEGKTT",binding result,binds
